Target: T1, GST-HSD17B7 fusion protein (human, UniProt P56937-1 1-341)
T1 construct: HSD17B7 (17β-hydroxysteroid dehydrogenase type 7), human, full-length cDNA amplified from HEK293T cDNA; 341 aa by the domain limits printed (1-229, 230-250, 251-341); also called 17β-Hydroxysteroid dehydrogenase type 7
T1 sequence (looked up): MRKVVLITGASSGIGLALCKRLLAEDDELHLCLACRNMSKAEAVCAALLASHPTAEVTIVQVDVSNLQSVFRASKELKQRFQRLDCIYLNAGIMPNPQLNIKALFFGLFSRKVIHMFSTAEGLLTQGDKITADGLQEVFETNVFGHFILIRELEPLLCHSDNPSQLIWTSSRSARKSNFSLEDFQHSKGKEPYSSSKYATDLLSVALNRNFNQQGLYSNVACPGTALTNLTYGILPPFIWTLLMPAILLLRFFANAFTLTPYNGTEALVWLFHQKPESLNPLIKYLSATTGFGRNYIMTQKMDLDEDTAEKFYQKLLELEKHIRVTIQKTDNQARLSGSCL
Experiment: pull-down; GST and GST-HSD17B7 immobilised on GSH resin, incubated with purified His-RER1 overnight at 4°C, washed with 0.3% PBST; Coomassie staining and western blot
Settings: both partners purified

- binding result: binds
B1: RER1-His (natural protein, human (cDNA from HEK293T), UniProt O15258 1-196, looked up)
chain: MSEGDSVGESVHGKPSVVYRFFTRLGQIYQSWLDKSTPYTAVRWVVTLGLSFVYMIRVYLLQGWYIVTYALGIYHLNLFIAFLSPKVDPSLMEDSDDGPSLPTKQNEEFRPFIRRLPEFKFWHAATKGILVAMVCTFFDAFNVPVFWPILVMYFIMLFCITMKRQIKHMIKYRYIPFTHGKRRYRGKEDAGKAFAS
notes: RER1, full-length cDNA amplified from HEK293T cDNA; The legend prints RER1-His, the methods His-RER1; the pET-23b vector would add a C-terminal His tag (surmised); Detected by immunoblot of the His tag; also called His-RER1; ER retention receptor RER1
